{"source": "patent US20080038731", "proteins": {"B1": {"name": "purified topors (protein)", "chain": "MGSQPPLGSPLSREEGEAPPPAPASEGRRRSRRVRLRGSCRHRPSFLGCRELAASAPARPAPASSEIMASAAKEFKMDNFSPKAGTSKLQQTVPADASPDSKCPICLDRFDNVSYLDRCLHKFCFRCVQEWSKNKAECPLCKQPFDSIFHSVRAEDDFKEYVLRPSYNGSFVTPDRRFRYRTTLTRERNASVYSPSGPVNRRTTTPPDSGVLFEGLGISTRPRDVEIPQFMRQIAVRRPTTADERSLRKIQEQDIINFRRTLYRAGARVRNIEDGGRYRDISAEFFRRNPACLHRLVPWLKRELTVLFGAHGSLVNIVQHIIMSNVTRYDLESQAFVSDLRPFLLNRTEHFIHEFISFARSPFNMAAFDQHANYDCPAPSYEEGSHSDSSVITISPDEAETQELDINVATVSQAPWDDETPGPSYSSSEQVHVTMSSLLNTSDSSDEELVTGGATSQIQGVQTNDDLNNDSDDSSDNCVIVGFVKPLAERTPELVELSSDSEDLGSYEKMETVKTQEQEQSYSSGDSDVSRCSSPHSVLGKDEQINKGHCDSSTRIKSKKEEKRSTSLSSPRNLNSSVRGDRVYSPYNHRHRKRGRSRSSDSRSQSRSGHDQKNHRKHHGKKRMKSKRSRSRESSRPRGRRDKKRSRTRDSSWSRRSQTLSLSSESTSRSRSRSSDHGKRRSRSRNRDRYYLRNNYGSRYKWEYTYYSRNKDRDGYESSYRRRTLSRAHYSRQSSSPEFRVQSFSERTNARKKNNHSERKYYYYERHRSRSLSSNRSRTASTGTDRVRNEKPGGKRKYKTRHLEGTNEVAQPSREFASKAKDSHYQKSSSKLDGNYKNESDTFSDSRSSDRETKHKRRKRKTRSLSVEIVYEGKATDTTKHHKKKKKKHKKKHKKHHGDNASRSPVVITIDSDSDKDSEVKEDTECDNSGPQDPLQNEFLAPSLEPFETKDVVTIEAEFGVLDKECDIATLSNNLNNANKTVDNIPPLAASVEQTLDVREESTFVSDLENQPSNIVSLQTEPSRQLPSPRTSLMSVCLGRDCDMS"}}, "key": {"IkBα, P25963": {"target": "T1, IkBα, P25963", "T1 chain": "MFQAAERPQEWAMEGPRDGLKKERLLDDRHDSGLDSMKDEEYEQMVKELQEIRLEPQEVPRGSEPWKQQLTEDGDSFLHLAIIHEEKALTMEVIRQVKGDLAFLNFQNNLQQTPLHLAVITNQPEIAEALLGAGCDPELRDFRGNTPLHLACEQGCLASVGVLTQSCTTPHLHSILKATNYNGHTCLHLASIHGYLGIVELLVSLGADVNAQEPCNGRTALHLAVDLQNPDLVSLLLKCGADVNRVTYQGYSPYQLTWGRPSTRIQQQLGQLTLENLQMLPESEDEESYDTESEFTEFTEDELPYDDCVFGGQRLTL"}}, "data": [{"protein": "B1", "values": [{"measurement": "sumoylation of IkBα in vitro", "setting": "IkBα, P25963", "value": "Topors also activates sumoylation of p53, but not IkBα"}, {"measurement": "sumoylation of p53 in vitro", "setting": "p53, P04637", "value": "Topors also activates sumoylation of p53, but not IkBα"}]}]}
